Results from the domain aggregation screens of Martell et al. (2025).

Experiment: soluble fraction after stress (log2 fold change); higher = more stays soluble; pooled small domains, quantitative proteomics
Details: stress: 75 degC
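Further: 20 min heating vs room temperature control held 20 min.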

In order of rising “soluble fraction (log2)” value:
1. HMDSAMMDLVMRVQLALFTKGYDVGIIDGKIGPKTRAQIKRYQSDNRLSSTGTLTTSLLTSLGIQ  -3.16
2. HMDSALKDDLNAFVKKLDVESQTLFMRRYFLGESVSSLASRFEMSEDNVGVKLFRIRAKLKKYLTGKGYD  -3.1
3. HMDSLSLTELRIDSASPWIGNRISDFSPYAGELVIMIIRGEETIVPNGDTIILDKDLLVIYSS  -2.11
4. HMDSATDRVALKELLNTLSARERTIITLRYFSDQTQTQVAKSLGISQVQVSRLENAILQRLRKL  -2.08
5. HMDSLNWVEKIINTLPEQQRLIIQMRDIEQYEFAEIAKILEMNETAIRVALSRARKTIREFMIKTH  -2.07
6. HMDSEEVYQMTKHKMDAAQISVAKRIHINLVLVKLLELHHLGYDLRHYHAQHHAFIKRLNLPEYFRFD  -1.67
7. HMDSGFMRTTQSYTVARLAEIFRLSGEDYLAVLREYDGWYQDLTSTKDLIRKGSDVPVPEGV  -1.67
8. HMDRPARDEAQSWLADVLADGPVPTAEIREEAEAAGLAWRTIQRARIALSVEPIRGDGRNAWLWQLPG  -1.49
9. HMDRWTPLVVAVLSRGSHRFGELRAAIGGITPKVLTDTLRSMERDGLITRDQAPGVPPRVDYALTPLGS  -1.43
10. HMDSDFIKIEVLFNERNRLDLKAMMEASGFTDRGQFLSIMADLTGDENWDRNLDRGDIFYLPRSFTI  -1.28
11. HMDRVTYPVSFNGKVRFQLELDAGMNAKEVETAALGHEKTAAQIEGKTIRKVIVVPGRIINIVV  -1.22
12. HMDSNFNYELVGFRLDDMGLNSSVIVKRNNQEFVIQKGDLLENKYLLNSVTKKNINFSYLGKNYQI  -1.07
13. HMDRSVTAAELRLAAMDLLARREHGSQELEAKLSRRFHKRHYDVELLRSVIEQLTVEGLLSDERFAVS  -0.951
14. HMDSGLEQAKTAALENAELETSQVTFIKAELDYDDGKKVYEIEFVTSAMKYEYQVKADDFSILEMSKETIE  -0.755
15. HMDSDIGQQLKILLTVGTFMPSTELKAIAQQFGMKKPTDLKEWVELESDTQRIKGNPTKGYWINEINDL  -0.682
16. HMDRIISTPMPGRVVKIPVTEGEPVAKGATVITISAMKMESEYKSPIDGIVKKIHVSEGDNINANQPLIEI  -0.51
17. HMDRFVLQLSKRYYDSSIEGVRKALAAFPVKTELLDQDRGGRPFYHENGKENEPVFRIMFHPEEGM  -0.421
18. HMDSDELEAFRLITSVNGVGPKLGIAILSEFTAEKLTVFIASGDAKALTAASGVGIKLAQRIVLELKDKVG  -0.351
19. HMDSILMPGVVNKELREALAILKNEGIGWADPEYASSTVTRNYVISTDPVEGIELAPGQKVRLVVSLGPKP  -0.326
20. HMDSLEIEEPITVKSLSAASGLKISDIIRKLMQEGIMATANQVIDREQAEAVLIDYNVDLVVKR  -0.281
21. HMDRESFIKLGRELARSAFAHVGQKSTEKALETAADVLRLKDPNEVLARLGSAELTGRQVVQAIYPELI  -0.277
22. HMDRRDEYHQHLLRLLLSGEIRDKDELQRRKVKLSGEYGLAGVPKNSETLALVPPDRLPEVLDILR  -0.214
23. HMDSNPLSEREQEVLQLVAKGASNQTIAEQLFLSNGTIRNYMTAIFNKLNANNRTDAVRIARENGW  -0.207
24. HMDSHSAESVRQRIKDMIAAEASKSILSDDTIVENLKSEGIEIARRTVAKYRESLNIPSSIQRRRIARSEA  -0.19
25. HMDSEKVLTNLKEELVLQLSNIEPYGYVPSQYWYSKVQRVQSVQELGKYVDGDLEAFVMKYAEDWESQK  -0.115
26. HMDRFRYYITEDSVQRGTYPYVDETTLKRFTSQLHKYEQGMISAYGYLEYSKPLTAEQIKDYTLMPSP  -0.0579
27. HMDRQIQITVAENEAGQRLDAFLAAKIPDMSRSYIQKLIEDGLILVNGQSTKGKVKTYSGMNIEVYMPE  -0.0484
28. HMDRSIGDIIAELRDLSAEQVERVLAHQRETGVRFGEAAVALGYASKEDVLFALSQQFHYPYAPEE  0.0114
29. HMDSIQMKNNSILYYGNTAGYLDAKRNTAVVDPMFRTDEMESYLSEQKGLSVEWASGTYDRLT  0.0501
30. HMDRKFFYEDQYQDYLGEELKVSFFDTDNKKTVRGTLSEVTPHGIKINLEQETQEIPFSSIIQANLI  0.224
